In patent US20210221885A1 (NANJING LEADS BIOLABS, published 2021):
Where a chain is given by its changes, count along the chain named.

T1: Human TIM-3 protein (Acrobiosystems, Cat#TM3-H5229) (human, UniProt Q8TDQ0 22-200)
T1 construct: Bought protein; also called recombinant human TIM-3; TIM-3 recombinant protein
T1 sequence (looked up): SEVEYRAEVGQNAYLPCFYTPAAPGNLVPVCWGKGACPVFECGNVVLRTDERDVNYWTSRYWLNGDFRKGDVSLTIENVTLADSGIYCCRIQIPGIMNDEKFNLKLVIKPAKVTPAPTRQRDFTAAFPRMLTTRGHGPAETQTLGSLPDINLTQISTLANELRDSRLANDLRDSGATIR

T2: human TIM-3 stably expressed on CHO-K1 cells (human, UniProt Q8TDQ0 22-301)
T2 construct: whole, on cells; also called CHO-K1-TIM-3; cell surface TIM-3
T2 sequence (looked up): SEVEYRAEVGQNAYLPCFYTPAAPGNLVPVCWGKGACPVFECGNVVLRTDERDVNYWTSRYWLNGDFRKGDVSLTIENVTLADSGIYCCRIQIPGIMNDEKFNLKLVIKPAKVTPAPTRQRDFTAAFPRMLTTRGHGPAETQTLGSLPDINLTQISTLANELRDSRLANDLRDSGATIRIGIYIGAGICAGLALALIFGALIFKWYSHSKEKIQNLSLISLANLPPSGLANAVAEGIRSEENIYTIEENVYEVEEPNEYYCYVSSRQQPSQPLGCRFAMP

T3: Eu3+ cryptate labeled TIM3 (Cisbio kit, cat# 63ADK000CTLPEB) (human, UniProt Q8TDQ0 22-202, limits assumed, Eu3+ cryptate label)
T3 construct: Kit reagent; construct not described; also called Tim3-EuK protein; Tim3-EuK
T3 sequence (looked up): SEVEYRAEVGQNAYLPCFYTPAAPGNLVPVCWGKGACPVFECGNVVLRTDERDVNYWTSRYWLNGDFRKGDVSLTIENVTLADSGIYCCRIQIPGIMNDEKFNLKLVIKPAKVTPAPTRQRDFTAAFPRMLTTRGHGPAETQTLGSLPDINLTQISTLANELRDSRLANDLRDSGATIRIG

T4: Human TIM-1 (Sino biological, Cat#11051-HNCH) (human, UniProt Q96D42 21-295, limits assumed)
T4 construct: Bought protein; construct not described
T4 sequence (looked up): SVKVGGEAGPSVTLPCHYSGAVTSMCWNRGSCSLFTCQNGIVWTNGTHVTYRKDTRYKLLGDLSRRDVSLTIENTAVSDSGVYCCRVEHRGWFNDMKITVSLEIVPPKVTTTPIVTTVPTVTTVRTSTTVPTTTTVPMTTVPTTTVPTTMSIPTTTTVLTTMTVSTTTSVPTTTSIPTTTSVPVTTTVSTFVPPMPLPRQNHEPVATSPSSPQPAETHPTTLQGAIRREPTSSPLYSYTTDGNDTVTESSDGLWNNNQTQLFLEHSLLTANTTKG

T5: Human TIM-4 (Sino biological, Cat#12161-H08H) (human, UniProt Q96H15 25-315)
T5 construct: Bought protein; construct not described
T5 sequence (looked up): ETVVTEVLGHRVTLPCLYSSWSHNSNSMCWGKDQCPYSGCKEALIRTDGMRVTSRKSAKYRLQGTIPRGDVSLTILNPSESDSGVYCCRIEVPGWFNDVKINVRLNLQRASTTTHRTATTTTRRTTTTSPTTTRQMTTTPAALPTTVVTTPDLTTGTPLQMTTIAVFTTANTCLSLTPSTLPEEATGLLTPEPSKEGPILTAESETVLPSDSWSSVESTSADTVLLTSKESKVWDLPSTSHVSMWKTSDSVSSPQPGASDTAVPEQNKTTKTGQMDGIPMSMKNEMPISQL

B1: ABTIM3 analog (antibody, human IgG4 S228P, kappa, V domains shown)
VH: QVQLVQSGAEVKKPGASVKVSCKASGYTFTSYNMHWVRQAPGQGLEWIGDIYPGSGDTSYNQKFKGRATMTADKSTSTVYMELSSLRSEDTAVYYCARVGGAFPMDYWGQGTLVTVSS
VL: DIVLTQSPDSLAVSLGERATINCRASESVEYYGTSLMQWYQQKPGQPPKLLIYAASNVESGVPDRFSGSGSGTDFTLTISSLQAEDVAVYYCQQSRKDPSTFGGGTKVEIKR
B2: anti-TIM-3 antibody TIM3-4G7 (antibody, human IgG4 S228P, kappa, V domains shown)
VH: EVQLVETGGGLVQPGGSLRLSCAASGFTFSSYAMSWVRQAPGKGLEWVSGISGSGGSTYYADSVKGRFTTSRDNSENTLYLQMNSLRAEDTAVYYCAGSYYDDAFDIWGQGTLVTVSS
VL: ETTLTQSPATLSLSPGDTATLSCRASQSVTKDLVAWYQQRPGQAPRLLLYGASSRATGIPDRFSGSGSGTDFTLTISRLEPEDFAVYYCQQYGRSPLTFGGGTKVEIKR
notes: Full-length IgG
B3: anti-TIM-3 antibody TIM3-6.11 (antibody, human IgG1, lambda, L234A L235A, V domains shown)
VH: QVQLVQSGAEVKKPGSSVKVSCKASGGTFSSYTIYWVRQAPGQGLEWMGSIIPILGTANYAQKFQGRVTITADESTSTAYMELSSLRSEDTAVYYCASASHTIWGQGTLVTVSS
VL: QAVVTQEPSLTVSPGGTVTLTCASSTGAVTSGYTPNWFQQRPGQAPRALIYTTSNRHSWTPARFSGSLLGGKAALTLSGVQPEDEADYYCLLYYGGAWVFGGGTKLTVLG
B4: anti-TIM-3 antibody TIM3-6 (antibody, human IgG4 S228P, lambda, V domains shown)
VH: B3 VH with Y35S, S50R, Q106K
VL: B3 VL with T34S
notes: Full-length IgG expressed in CHO-S cells
B5: anti-TIM-3 antibody TIM3-6.10 (antibody, human IgG1, lambda, L234A L235A, V domains shown)
VH: B3 VH
VL: B3 VL with Y33N
B6: anti-TIM-3 antibody TIM3-6.12 (antibody, human IgG1, lambda, L234A L235A)
heavy: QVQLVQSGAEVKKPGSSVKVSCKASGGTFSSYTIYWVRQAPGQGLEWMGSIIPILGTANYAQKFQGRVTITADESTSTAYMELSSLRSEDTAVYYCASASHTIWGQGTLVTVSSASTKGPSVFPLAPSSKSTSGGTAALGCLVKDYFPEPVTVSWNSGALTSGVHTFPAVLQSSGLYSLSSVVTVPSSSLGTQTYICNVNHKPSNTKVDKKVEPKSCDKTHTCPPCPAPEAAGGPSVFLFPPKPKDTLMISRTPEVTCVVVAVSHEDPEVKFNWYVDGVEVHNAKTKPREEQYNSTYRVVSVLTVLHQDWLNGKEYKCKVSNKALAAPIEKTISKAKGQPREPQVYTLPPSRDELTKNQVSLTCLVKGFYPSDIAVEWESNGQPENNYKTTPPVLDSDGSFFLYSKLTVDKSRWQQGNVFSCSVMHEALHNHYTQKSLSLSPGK
light: QAVVTQEPSLTVSPGGTVTLTCASSTGAVTSGYTPNWFQQRPGQAPRALIYTTNNRHSWTPARFSGSLLGGKAALTLSGVQPEDEADYYCLLYYGGAWVFGGGTKLTVLGQPKAAPSVTLFPPSSEELQANKATLVCLISDFYPGAVTVAWKADSSPVKAGVETTTPSKQSNNKYAASSYLSLTPEQWKSHRSYSCQVTHEGSTVEKTVAPTEC
notes: In the internalization assay the antibody carried pHAb amine reactive dye
B7: anti-TIM-3 antibody TIM3-11 (antibody, human IgG4 S228P, lambda, V domains shown)
VH: QVQLQQSGPGLVKPSQTLSLTCAISGDSVSSNSAAWNWIRQSPSRGLEWLGRTYYRSKWYNDYAVSVKSRITINPDTSKNQFSLQLNSVTPEDTAVYYCARDQAAGFPQPYIYGMDVWGKGTMVTVSS
VL: LPVLTQPPSVSKGLRQTATLTCTGNSNNVGNQGAAWLQQHQGHPPKLLTYRTNNRPSGISERFSASRSGNTASLTITGLQPEDEADYYCSGWDSSLNEGVFGGGTKLTVLG
notes: Full-length IgG

Tests used:
[1] = target: T1, Human TIM-3 protein (Acrobiosystems, …); assay: ELISA, human TIM-3 coated at 1 ug/mL, detection with peroxidase-labeled anti-human IgG, OD450-620
Method: (§1) An ELISA assay was used for determination of the relative binding activity of antibodies to recombinant human TIM-3.
(§2) Human TIM-3 protein (Acrobiosystems, Cat#TM3-H5229) in carbonate buffer (pH 9.6, 1.59 g sodium carbonate and 2.93 g sodium bicarbonate dissolved in 1L water) was immobilized onto 96-well plates at 1μg/mL by incubation overnight at 4° C. The plates were then blocked with 1% BSA in PBS for one hour at 37° C. After blocking, the plates were washed three times with PBST (PBS containing 0.05% Tween20). […] After binding, the plates were washed three times with PBST, incubated for one hour at 37° C. with peroxidase-labeled donkey anti-human IgG (Jackson Immuno Research) diluted 1/15,000 in binding buffer, washed again, developed with TMB and stopped with 1M H₂SO₄.
(§3) The absorbance at 450 nm-620 nm was determined.

[2] = target: T2, human TIM-3 stably expressed on CHO-K1 …; assay: flow cytometry on CHO-K1-TIM-3 cells, detection with PE anti-human IgG Fc, MFI; the unit is that of the concentration axis
Method: Anti-TIM-3 antibodies were tested for their binding ability to human TIM-3 stably expressed on CHO-K1 cells. A Chinese hamster ovary epithelial CHO-K1 cell line (ATCC, cat# CCL-61) was maintained in F-12K medium containing 10% FBS in a humidified incubator with 5% CO₂ at 37° C. Polyethylenimine (MW25K, 23966-2, Polyscience) was diluted to 1 mg/mL, and added to and incubated with pcDNA3.1 vector containing TIM-3 cDNA (NP_116171.3) at 37° C. for 10 mins. The mixture was added to and incubated with cell culture for 3hrs for DNA transfection.
The anti-TIM-3 antibodies were serially diluted in PBS buffer with 0.5% BSA. The antibodies were added to and incubated with CHO-K1-TIM-3 cells at 4° C. for 30min. The cells were pelleted (3 minutes, 600×g), washed once using PBS buffer with 0.5% BSA and re-pelleted. Then, the cells were incubated with a PE conjugated AffiniPure Goat Anti-human IgG, Fcγ Fragment Specific (Jackson ImmunoResearch Cat#109-116-098) diluted at 1:100 at 4 ° C. for 30mins. Cells were washed twice as described above, resuspended in PBS buffer. The cells were then sent to the […] flow cytometer (BD Bioscience) for binding activity analysis. The EC₅₀ values were calculated.

[3] = target: T3, Eu3+ cryptate labeled TIM3 (Cisbio kit, …); assay: HTRF blocking assay (Cisbio kit), antibody added to a mixture of Tim3-EuK and Tag-Gal9; blocked ligand galectin-9; the unit is that of the concentration axis
Method: The resultant mixture was incubated for 1 h at room temperature and then the fluorescence emission was read.

[4] = target: T1, Human TIM-3 protein (Acrobiosystems, …); assay: SPR, Biacore T200; antibody captured on anti-human IgG (Fc), human TIM-3 injected at 1.56-50 nM; 1:1 Langmuir fit
Method: The kinetic binding activity of anti-TIM-3 antibodies to human TIM-3 (Acrobiosystems, Cat#TM3-H5229) was measured by surface plasmon resonance using a Biacore® T200 system (Biacore, GE Healthcare).
Approximately 6800 RU of Anti-Human IgG (Fc) antibody (GE Catalog # BR-1008-39) was immobilized via amine coupling chemistry onto a CMS sensor chip. […] HBS-EP+ buffer was used as the running buffer. Varying concentrations of human TIM-3 protein, ranging from 1.56 nM to 50 nM, were injected over the antibody surfaces. Following each injection cycle, the CMS chip surface was regenerated using injection of 3M magnesium chloride solution. Background subtraction binding sensorgrams were used for analyzing the rate of association Ka and dissociation Kd, and the equilibrium dissociation constant KD. The resulting data sets were fitted with a 1:1 Langmuir Binding Model using the Biacore T200 evaluation software.

[5] = target: T1, Human TIM-3 protein (Acrobiosystems, …); assay: ELISA, human TIM-3 coated at 1 ug/mL, detection with peroxidase-labeled anti-human IgG, OD450-620; the unit is that of the concentration axis
Method: as §1, §2, §3

[6] = target: T4, Human TIM-1 (Sino biological, …); assay: ELISA, human TIM-1 coated, serially diluted antibody
Method: (§4) After blocking, the plates were washed three times with PBST (PBS containing 0.05% Tween20). […] After binding, the plates were washed three times with PBST, incubated for one hour at 37° C. with peroxidase-labeled donkey anti-human IgG (Jackson Immuno Research) diluted 1/15,000 in binding buffer, washed again, developed with TMB and stopped with 1M H₂SO₄.
as §3

[7] = target: T5, Human TIM-4 (Sino biological, …); assay: ELISA, human TIM-4 coated, serially diluted antibody
Method: as §4, §3

[8] = target: C1q (Calbiochem, Cat#204876) (UniProt P02745 23-245; P02746 28-253; P02747 29-245); assay: ELISA, antibody coated, C1q added, anti-C1q-HRP detection
Sequence of C1q (Calbiochem, Cat#204876) (P02745 23-245, chain 1 of 3): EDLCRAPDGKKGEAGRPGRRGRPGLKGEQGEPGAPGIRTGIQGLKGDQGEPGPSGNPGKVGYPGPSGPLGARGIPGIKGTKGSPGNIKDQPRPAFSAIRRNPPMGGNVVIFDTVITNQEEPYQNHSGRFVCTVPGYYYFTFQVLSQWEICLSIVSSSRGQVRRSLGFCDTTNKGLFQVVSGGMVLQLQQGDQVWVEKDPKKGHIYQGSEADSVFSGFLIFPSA
Sequence of C1q (Calbiochem, Cat#204876) (P02746 28-253, chain 2 of 3): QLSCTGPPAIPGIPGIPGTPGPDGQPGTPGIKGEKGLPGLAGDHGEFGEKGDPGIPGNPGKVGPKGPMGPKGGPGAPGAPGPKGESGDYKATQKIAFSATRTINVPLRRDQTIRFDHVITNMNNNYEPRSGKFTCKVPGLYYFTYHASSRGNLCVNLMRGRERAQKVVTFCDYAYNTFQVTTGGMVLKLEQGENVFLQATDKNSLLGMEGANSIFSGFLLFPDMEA
Sequence of C1q (Calbiochem, Cat#204876) (P02747 29-245, chain 3 of 3): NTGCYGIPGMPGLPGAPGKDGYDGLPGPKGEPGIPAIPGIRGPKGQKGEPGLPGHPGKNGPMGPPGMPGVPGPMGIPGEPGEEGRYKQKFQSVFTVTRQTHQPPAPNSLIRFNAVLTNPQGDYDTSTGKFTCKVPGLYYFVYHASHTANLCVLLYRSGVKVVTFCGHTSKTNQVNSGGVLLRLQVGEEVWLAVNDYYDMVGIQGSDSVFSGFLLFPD

Row | Binder | IC50 [3] [nM] | Kd [4] [nM] | koff [4] [s⁻¹] | kon [4] [M⁻¹ s⁻¹] | EC50 [5] [nM] | other results
1 | B1 | 5.87 |  |  |  |  | EC50 (read off the curve) [1]: ~0.08 nM; EC50 [2]: 0.543 nM
2 | B2 | 4.73 |  |  |  |  | EC50 (read off the curve) [1]: 2 to 3 nM
3 | B3 |  | 1.5 | 0.000344 | 230000 |  | 
4 | B4 | 1.88 |  |  |  | 9.24 | binding result [6]: no binding; binding result [7]: no binding
5 | B5 |  | 2.05 | 0.000415 | 202000 |  | 
6 | B6 |  | 1.66 | 0.00037 | 223000 | 0.0915 | binding result [8]: no binding; EC50 [2]: 0.746 nM
7 | B7 | 3.56 |  |  |  | 5.08 | 
